Measured values: publication PMC12866175 (European journal of nuclear medicine and molecular imaging, 2021)

Test: Radiation dosimetry and clearance kinetics from biodistribution data
Format: in vivo, BALB/c mice
Conditions: for Total absorbed dose/injected activity: sum of five α-emitting radionuclides

SMILES: C[C@@H](O)[C@H](NC(=O)[C@@H]1CSSC[C@H](NC(=O)[C@@H](Cc2ccccc2)NC(=O)CN2CCN(CC(=O)O)CCN(CC(=O)O)CCN(CC(=O)O)CC2)C(=O)N[C@@H](Cc2ccc(O)cc2)C(=O)N[C@H](Cc2c[nH]c3ccccc23)C(=O)N[C@@H](CCCCN)C(=O)N[C@@H]([C@@H](C)O)C(=O)N1)C(=O)O [[^225Ac]Ac-DOTA-TATE, metal not drawn]
- Initial activity/organ, A○ (^217At, Muscle): 0.0052 kBq
- Absorbed dose/injected activity (^217At, Pancreas): 0.0003 Gy/kBq
- Accumulated activity/organ, A~ (^217At, Pancreas): 1.1933 kBq×h
- Decay rate constant, λeff (^217At, Pancreas): 0.0080 h⁻¹
- Initial activity/organ, A○ (^217At, Pancreas): 0.0169 kBq
- Absorbed dose/injected activity (^217At, Salivary): 0.0002 Gy/kBq
- Accumulated activity/organ, A~ (^217At, Salivary): 0.7036 kBq×h
- Decay rate constant, λeff (^217At, Salivary): -0.0028 h⁻¹
- Initial activity/organ, A○ (^217At, Salivary): 0.0037 kBq
- Absorbed dose/injected activity (^217At, Skin): 0.0001 Gy/kBq
- Accumulated activity/organ, A~ (^217At, Skin): 0.6489 kBq×h
- Decay rate constant, λeff (^217At, Skin): -0.0015 h⁻¹
- Initial activity/organ, A○ (^217At, Skin): 0.0039 kBq
- Absorbed dose/injected activity (^217At, Spleen): 0.0004 Gy/kBq
- Accumulated activity/organ, A~ (^217At, Spleen): 1.0604 kBq×h
- Decay rate constant, λeff (^217At, Spleen): 0.0030 h⁻¹
- Initial activity/organ, A○ (^217At, Spleen): 0.0097 kBq
- Absorbed dose/injected activity (^217At, Stomach): 0.0005 Gy/kBq
- Accumulated activity/organ, A~ (^217At, Stomach): 3.0452 kBq×h
- Decay rate constant, λeff (^217At, Stomach): 0.0170 h⁻¹
- Absorbed dose/injected activity (^221Fr, Blood): 0.0001 Gy/kBq
- Accumulated activity/organ, A~ (^221Fr, Blood): 0.5594 kBq×h
- Decay rate constant, λeff (^221Fr, Blood): -0.0071 h⁻¹
- Initial activity/organ, A○ (^221Fr, Blood): 0.0019 kBq
- Absorbed dose/injected activity (^221Fr, Bone): 0.0003 Gy/kBq
- Accumulated activity/organ, A~ (^221Fr, Bone): 1.0195 kBq×h
- Decay rate constant, λeff (^221Fr, Bone): 0.0100 h⁻¹
- Initial activity/organ, A○ (^221Fr, Bone): 0.0170 kBq
- Absorbed dose/injected activity (^221Fr, Brain): 0.0001 Gy/kBq
- Accumulated activity/organ, A~ (^221Fr, Brain): 0.7934 kBq×h
- Decay rate constant, λeff (^221Fr, Brain): -0.0044 h⁻¹
- Initial activity/organ, A○ (^221Fr, Brain): 0.0036 kBq
- Absorbed dose/injected activity (^221Fr, Heart): 0.0000 Gy/kBq
- Accumulated activity/organ, A~ (^221Fr, Heart): 0.2102 kBq×h
- Decay rate constant, λeff (^221Fr, Heart): 0.0190 h⁻¹
- Initial activity/organ, A○ (^221Fr, Heart): 0.0067 kBq
- Absorbed dose/injected activity (^221Fr, Intestine): 0.0002 Gy/kBq
- Accumulated activity/organ, A~ (^221Fr, Intestine): 7.2991 kBq×h
- Decay rate constant, λeff (^221Fr, Intestine): 0.0130 h⁻¹
- Absorbed dose/injected activity (^221Fr, Kidney): 0.0019 Gy/kBq
- Accumulated activity/organ, A~ (^221Fr, Kidney): 12.5136 kBq×h
- Decay rate constant, λeff (^221Fr, Kidney): 0.0190 h⁻¹
- Initial activity/organ, A○ (^221Fr, Kidney): 0.4011 kBq
- Absorbed dose/injected activity (^221Fr, Liver): 0.0014 Gy/kBq
- Accumulated activity/organ, A~ (^221Fr, Liver): 32.1637 kBq×h
- Decay rate constant, λeff (^221Fr, Liver): -0.0033 h⁻¹
- Initial activity/organ, A○ (^221Fr, Liver): 0.1612 kBq
- Absorbed dose/injected activity (^221Fr, Lung): 0.0003 Gy/kBq
- Accumulated activity/organ, A~ (^221Fr, Lung): 1.7734 kBq×h
- Decay rate constant, λeff (^221Fr, Lung): 0.0080 h⁻¹
- Initial activity/organ, A○ (^221Fr, Lung): 0.0251 kBq
- Absorbed dose/injected activity (^221Fr, Muscle): 0.0000 Gy/kBq
- Accumulated activity/organ, A~ (^221Fr, Muscle): 0.1848 kBq×h
- Decay rate constant, λeff (^221Fr, Muscle): 0.0170 h⁻¹
- Initial activity/organ, A○ (^221Fr, Muscle): 0.0052 kBq
- Absorbed dose/injected activity (^221Fr, Pancreas): 0.0003 Gy/kBq
- Accumulated activity/organ, A~ (^221Fr, Pancreas): 1.1933 kBq×h
- Decay rate constant, λeff (^221Fr, Pancreas): 0.0080 h⁻¹
- Initial activity/organ, A○ (^221Fr, Pancreas): 0.0169 kBq
- Absorbed dose/injected activity (^221Fr, Salivary): 0.0002 Gy/kBq
- Accumulated activity/organ, A~ (^221Fr, Salivary): 0.7036 kBq×h
- Decay rate constant, λeff (^221Fr, Salivary): -0.0028 h⁻¹
- Initial activity/organ, A○ (^221Fr, Salivary): 0.0037 kBq
- Absorbed dose/injected activity (^221Fr, Skin): 0.0001 Gy/kBq
- Accumulated activity/organ, A~ (^221Fr, Skin): 0.6489 kBq×h
- Decay rate constant, λeff (^221Fr, Skin): -0.0015 h⁻¹
- Initial activity/organ, A○ (^221Fr, Skin): 0.0039 kBq
- Absorbed dose/injected activity (^221Fr, Spleen): 0.0004 Gy/kBq
- Accumulated activity/organ, A~ (^221Fr, Spleen): 1.0604 kBq×h
- Decay rate constant, λeff (^221Fr, Spleen): 0.0030 h⁻¹
- Initial activity/organ, A○ (^221Fr, Spleen): 0.0097 kBq
- Absorbed dose/injected activity (^221Fr, Stomach): 0.0004 Gy/kBq
- Accumulated activity/organ, A~ (^221Fr, Stomach): 3.0452 kBq×h
- Decay rate constant, λeff (^221Fr, Stomach): 0.0170 h⁻¹
- Initial activity/organ, A○ (^221Fr, Stomach): 0.0852 kBq
- lower effective half-life of kidneys compared to liver (^225Ac): ~5 fold
- Absorbed dose/injected activity (^225Ac, Blood): 0.0000 Gy/kBq
- Accumulated activity/organ, A~ (^225Ac, Blood): 0.0080 kBq×h
- Decay rate constant, λeff (^225Ac, Blood): 0.0206 h⁻¹
- Initial activity/organ, A○ (^225Ac, Blood): 0.0003 kBq
- Absorbed dose/injected activity (^225Ac, Bone): 0.0004 Gy/kBq
- Accumulated activity/organ, A~ (^225Ac, Bone): 1.4274 kBq×h
- Decay rate constant, λeff (^225Ac, Bone): 0.0030 h⁻¹
- Initial activity/organ, A○ (^225Ac, Bone): 0.0131 kBq
- Absorbed dose/injected activity (^225Ac, Brain): 0.0001 Gy/kBq
- Accumulated activity/organ, A~ (^225Ac, Brain): 0.8190 kBq×h
- Decay rate constant, λeff (^225Ac, Brain): -0.0103 h⁻¹
- Initial activity/organ, A○ (^225Ac, Brain): 0.0019 kBq
- Absorbed dose/injected activity (^225Ac, Heart): 0.0001 Gy/kBq
- Accumulated activity/organ, A~ (^225Ac, Heart): 0.4871 kBq×h
- Decay rate constant, λeff (^225Ac, Heart): -0.0004 h⁻¹
- Initial activity/organ, A○ (^225Ac, Heart): 0.0033 kBq
- Absorbed dose/injected activity (^225Ac, Intestine): 0.0001 Gy/kBq
- Accumulated activity/organ, A~ (^225Ac, Intestine): 4.4589 kBq×h
- Decay rate constant, λeff (^225Ac, Intestine): 0.0200 h⁻¹
- Initial activity/organ, A○ (^225Ac, Intestine): 0.1527 kBq
- Absorbed dose/injected activity (^225Ac, Kidney): 0.0012 Gy/kBq
- Accumulated activity/organ, A~ (^225Ac, Kidney): 8.2462 kBq×h
- Decay rate constant, λeff (^225Ac, Kidney): 0.0250 h⁻¹
- Initial activity/organ, A○ (^225Ac, Kidney): 0.3862 kBq
- Absorbed dose/injected activity (^225Ac, Liver): 0.0012 Gy/kBq
- Accumulated activity/organ, A~ (^225Ac, Liver): 29.4458 kBq×h
- Decay rate constant, λeff (^225Ac, Liver): -0.0053 h⁻¹
- Initial activity/organ, A○ (^225Ac, Liver): 0.1200 kBq
- Absorbed dose/injected activity (^225Ac, Lung): 0.0001 Gy/kBq
- Accumulated activity/organ, A~ (^225Ac, Lung): 1.0829 kBq×h
- Decay rate constant, λeff (^225Ac, Lung): 0.0130 h⁻¹
- Initial activity/organ, A○ (^225Ac, Lung): 0.0227 kBq
- Absorbed dose/injected activity (^225Ac, Muscle): 0.0001 Gy/kBq
- Accumulated activity/organ, A~ (^225Ac, Muscle): 0.5613 kBq×h
- Decay rate constant, λeff (^225Ac, Muscle): -0.0049 h⁻¹
- Initial activity/organ, A○ (^225Ac, Muscle): 0.0024 kBq
- Absorbed dose/injected activity (^225Ac, Pancreas): 0.0003 Gy/kBq
- Accumulated activity/organ, A~ (^225Ac, Pancreas): 1.4271 kBq×h
- Decay rate constant, λeff (^225Ac, Pancreas): 0.0060 h⁻¹
- Initial activity/organ, A○ (^225Ac, Pancreas): 0.0171 kBq
- Absorbed dose/injected activity (^225Ac, Salivary): 0.0002 Gy/kBq
- Accumulated activity/organ, A~ (^225Ac, Salivary): 0.8906 kBq×h
- Decay rate constant, λeff (^225Ac, Salivary): -0.0077 h⁻¹
- Initial activity/organ, A○ (^225Ac, Salivary): 0.0028 kBq
- Absorbed dose/injected activity (^225Ac, Skin): 0.0001 Gy/kBq
- Accumulated activity/organ, A~ (^225Ac, Skin): 0.8656 kBq×h
- Decay rate constant, λeff (^225Ac, Skin): -0.0092 h⁻¹
- Initial activity/organ, A○ (^225Ac, Skin): 0.0023 kBq
- Absorbed dose/injected activity (^225Ac, Spleen): 0.0001 Gy/kBq
- Accumulated activity/organ, A~ (^225Ac, Spleen): 0.3228 kBq×h
- Decay rate constant, λeff (^225Ac, Spleen): 0.0062 h⁻¹
- Initial activity/organ, A○ (^225Ac, Spleen): 0.0039 kBq
- Absorbed dose/injected activity (^225Ac, Stomach): 0.0004 Gy/kBq
- Accumulated activity/organ, A~ (^225Ac, Stomach): 2.6801 kBq×h
- Decay rate constant, λeff (^225Ac, Stomach): 0.0190 h⁻¹
- Initial activity/organ, A○ (^225Ac, Stomach): 0.0859 kBq
- Total absorbed dose/injected activity (Blood): 0.0002 Gy/kBq
- Total absorbed dose/injected activity (Bone): 0.0014 Gy/kBq
- Total absorbed dose/injected activity (Brain): 0.0004 Gy/kBq
- Total absorbed dose/injected activity (Heart): 0.0004 Gy/kBq
- Total absorbed dose/injected activity (Intestine): 0.0007 Gy/kBq
- Total absorbed dose/injected activity (Kidney): 0.0068 Gy/kBq
- Total absorbed dose/injected activity (Liver): 0.0059 Gy/kBq
- Total absorbed dose/injected activity (Lung): 0.0009 Gy/kBq
- Total absorbed dose/injected activity (Muscle): 0.0003 Gy/kBq
- Total absorbed dose/injected activity (Pancreas): 0.0011 Gy/kBq
- Total absorbed dose/injected activity (Salivary): 0.0008 Gy/kBq
- Total absorbed dose/injected activity (Skin): 0.0004 Gy/kBq
- Total absorbed dose/injected activity (Spleen): 0.0016 Gy/kBq
- Total absorbed dose/injected activity (Stomach): 0.0017 Gy/kBq
